# Reference: PMC5676692
# Target: integrin αVβ6 heterodimer (integrin alpha-V, ITGAV, and integrin beta-6, ITGB6) (human (endogenous in HEK293T)) (UniProt P18564)
# Chain of UniProt P18564 (P18564 whole entry, looked up, one chain of several): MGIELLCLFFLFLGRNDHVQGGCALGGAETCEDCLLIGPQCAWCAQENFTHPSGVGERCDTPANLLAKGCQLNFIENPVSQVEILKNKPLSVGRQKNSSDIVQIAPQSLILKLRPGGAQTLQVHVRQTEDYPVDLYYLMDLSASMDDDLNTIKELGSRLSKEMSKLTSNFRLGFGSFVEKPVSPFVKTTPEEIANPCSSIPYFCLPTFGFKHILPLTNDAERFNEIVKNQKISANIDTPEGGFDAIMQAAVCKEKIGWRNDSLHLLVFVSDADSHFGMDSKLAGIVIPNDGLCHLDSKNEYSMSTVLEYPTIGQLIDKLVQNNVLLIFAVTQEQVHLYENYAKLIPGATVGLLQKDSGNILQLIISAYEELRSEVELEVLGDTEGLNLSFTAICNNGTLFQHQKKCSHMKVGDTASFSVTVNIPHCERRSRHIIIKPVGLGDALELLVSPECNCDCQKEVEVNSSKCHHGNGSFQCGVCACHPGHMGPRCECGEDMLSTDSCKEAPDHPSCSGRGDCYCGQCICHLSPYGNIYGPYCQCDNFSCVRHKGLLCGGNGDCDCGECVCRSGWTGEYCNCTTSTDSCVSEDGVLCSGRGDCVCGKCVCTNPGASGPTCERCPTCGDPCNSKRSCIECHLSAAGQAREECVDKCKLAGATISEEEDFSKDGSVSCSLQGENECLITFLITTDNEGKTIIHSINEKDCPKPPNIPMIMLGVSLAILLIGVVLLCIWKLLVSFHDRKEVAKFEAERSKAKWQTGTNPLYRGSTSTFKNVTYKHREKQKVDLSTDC
substance,measurement,value
control AAV9 viral particle (unmodified AAV9 capsid) (from UniProt Q6JC40 1-736; Q6JC40 138-736; Q6JC40 203-736) (complex),"AAV9-GFP transduction (GFP+ cells after 24 h) of HEK293T, Hela or U87 cells pre-treated for 2 h with 20 µg/ml of a mouse anti-human αVβ6 functional blocking antibody, against PBS control",50%
